The chains are these.
T1: EsCas13d, nuclease-dead (Eubacterium siraeum, UniProt B0MS50, R295A;H300A;R849A;H854A)
T1 sequence: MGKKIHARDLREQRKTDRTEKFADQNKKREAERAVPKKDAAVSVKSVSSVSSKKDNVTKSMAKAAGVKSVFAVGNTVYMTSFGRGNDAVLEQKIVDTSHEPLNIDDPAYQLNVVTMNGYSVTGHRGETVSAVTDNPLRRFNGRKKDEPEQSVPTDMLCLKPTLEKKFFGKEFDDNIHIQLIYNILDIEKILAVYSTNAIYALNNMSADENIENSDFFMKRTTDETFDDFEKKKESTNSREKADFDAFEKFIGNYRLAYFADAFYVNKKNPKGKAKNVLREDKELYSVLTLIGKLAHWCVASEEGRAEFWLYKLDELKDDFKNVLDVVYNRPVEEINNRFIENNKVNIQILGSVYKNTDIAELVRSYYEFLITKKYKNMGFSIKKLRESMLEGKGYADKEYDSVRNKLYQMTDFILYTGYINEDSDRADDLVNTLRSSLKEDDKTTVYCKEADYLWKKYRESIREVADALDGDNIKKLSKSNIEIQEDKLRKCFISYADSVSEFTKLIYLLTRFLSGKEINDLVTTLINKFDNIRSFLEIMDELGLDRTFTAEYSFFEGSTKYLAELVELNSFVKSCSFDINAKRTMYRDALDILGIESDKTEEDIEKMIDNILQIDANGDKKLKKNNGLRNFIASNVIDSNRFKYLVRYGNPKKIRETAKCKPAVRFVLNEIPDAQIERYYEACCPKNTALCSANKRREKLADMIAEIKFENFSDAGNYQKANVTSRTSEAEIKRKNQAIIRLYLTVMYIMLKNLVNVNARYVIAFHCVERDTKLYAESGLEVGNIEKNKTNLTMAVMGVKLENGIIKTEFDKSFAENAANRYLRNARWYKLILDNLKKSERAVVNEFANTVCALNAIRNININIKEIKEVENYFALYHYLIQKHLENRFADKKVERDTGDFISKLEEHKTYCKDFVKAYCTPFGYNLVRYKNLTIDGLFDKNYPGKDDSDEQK

B1: target 2 MT 5'PFS UAU 3'PFS GCA (mixed)
RNA 1: CACCCGUGCAAAAUUGCAGGGGUCUAAAACCUUCUCCAAAUUGUUUCAUCCU
RNA 2: GGGAAUGGAUCCACAUCUACGAAUUCUAUAGGAUGAAACAAUUUGGAGAAGGCAAGAUCGGAAGAGCACACGU
B2: target 2 MT 5'PFS GGC 3'PFS UGC (mixed)
RNA 1: CACCCGUGCAAAAUUGCAGGGGUCUAAAACCUUCUCCAAAUUGUUUCAUCCU
RNA 2: GGGAAUGGAUCCACAUCUACGAAUUCGGCAGGAUGAAACAAUUUGGAGAAGUGCAGAUCGGAAGAGCACACGU
B3: target 2 MT 5'PFS GUA 3'PFS AGU (mixed)
RNA 1: CACCCGUGCAAAAUUGCAGGGGUCUAAAACCUUCUCCAAAUUGUUUCAUCCU
RNA 2: GGGAAUGGAUCCACAUCUACGAAUUCGUAAGGAUGAAACAAUUUGGAGAAGAGUAGAUCGGAAGAGCACACGU
B4: target 2 MT 5'PFS GCG 3'PFS UGU (mixed)
RNA 1: CACCCGUGCAAAAUUGCAGGGGUCUAAAACCUUCUCCAAAUUGUUUCAUCCU
RNA 2: GGGAAUGGAUCCACAUCUACGAAUUCGCGAGGAUGAAACAAUUUGGAGAAGUGUAGAUCGGAAGAGCACACGU
B5: target 2 MT 5'PFS CGC 3'PFS UAC (mixed)
RNA 1: CACCCGUGCAAAAUUGCAGGGGUCUAAAACCUUCUCCAAAUUGUUUCAUCCU
RNA 2: GGGAAUGGAUCCACAUCUACGAAUUCCGCAGGAUGAAACAAUUUGGAGAAGUACAGAUCGGAAGAGCACACGU
B6: target 2 MT 5'PFS GUA 3'PFS AGA (mixed)
RNA 1: CACCCGUGCAAAAUUGCAGGGGUCUAAAACCUUCUCCAAAUUGUUUCAUCCU
RNA 2: GGGAAUGGAUCCACAUCUACGAAUUCGUAAGGAUGAAACAAUUUGGAGAAGAGAAGAUCGGAAGAGCACACGU
B7: target 2 MT 5'PFS CUC 3'PFS ACU (mixed)
RNA 1: CACCCGUGCAAAAUUGCAGGGGUCUAAAACCUUCUCCAAAUUGUUUCAUCCU
RNA 2: GGGAAUGGAUCCACAUCUACGAAUUCCUCAGGAUGAAACAAUUUGGAGAAGACUAGAUCGGAAGAGCACACGU
B8: target 2 MT 5'PFS ACC 3'PFS CCG (mixed)
RNA 1: CACCCGUGCAAAAUUGCAGGGGUCUAAAACCUUCUCCAAAUUGUUUCAUCCU
RNA 2: GGGAAUGGAUCCACAUCUACGAAUUCACCAGGAUGAAACAAUUUGGAGAAGCCGAGAUCGGAAGAGCACACGU
B9: target 2 MT 5'PFS CGC 3'PFS UAA (mixed)
RNA 1: CACCCGUGCAAAAUUGCAGGGGUCUAAAACCUUCUCCAAAUUGUUUCAUCCU
RNA 2: GGGAAUGGAUCCACAUCUACGAAUUCCGCAGGAUGAAACAAUUUGGAGAAGUAAAGAUCGGAAGAGCACACGU
B10: non-target control (mixed)
RNA 1: CACCCGUGCAAAAAUGCAGGGGUCUAAAACUGAGCGGAUAACCUCUCUAUGG
RNA 2: GGGAAUGGAUCCACAUCUACGAAUUCGUUAGCUAGAAGGGGAAGUUGGUUAUGGAGAUCGGAAGAGCACACGU
B11: target 1 insG 3' of 9,insA 3' of 5 (mixed)
RNA 1: CACCCGUGCAAAAAUGCAGGGGUCUAAAACUGAGCGGAUAACCUCUCUAUGG
RNA 2: GGGAAUGGAUCCACAUCUACGAAUUCGUACCAUAGAGAGGUUAGUCCGACUCACCGAGAUCGGAAGAGCACACGU
B12: target 1 U11A (mixed)
RNA 1: CACCCGUGCAAAAAUGCAGGGGUCUAAAACUGAGCGGAUAACCUCUCUAUGG
RNA 2: GGGAAUGGAUCCACAUCUACGAAUUCGUACCAUAGAGAGGAUAUCCGCUCACCGAGAUCGGAAGAGCACACGU
B13: target 1 U3A,U10G (mixed)
RNA 1: CACCCGUGCAAAAAUGCAGGGGUCUAAAACUGAGCGGAUAACCUCUCUAUGG
RNA 2: GGGAAUGGAUCCACAUCUACGAAUUCGUACCAUAGAGAGGUGAUCCGCACACCGAGAUCGGAAGAGCACACGU
B14: target 1 C4U,U8C (mixed)
RNA 1: CACCCGUGCAAAAAUGCAGGGGUCUAAAACUGAGCGGAUAACCUCUCUAUGG
RNA 2: GGGAAUGGAUCCACAUCUACGAAUUCGUACCAUAGAGAGGUUACCCGUUCACCGAGAUCGGAAGAGCACACGU
B15: target 1 A1G,A9U (mixed)
RNA 1: CACCCGUGCAAAAAUGCAGGGGUCUAAAACUGAGCGGAUAACCUCUCUAUGG
RNA 2: GGGAAUGGAUCCACAUCUACGAAUUCGUACCAUAGAGAGGUUUUCCGCUCGCCGAGAUCGGAAGAGCACACGU
B16: target 1 insA 3' of 15,insC 3' of 8 (mixed)
RNA 1: CACCCGUGCAAAAAUGCAGGGGUCUAAAACUGAGCGGAUAACCUCUCUAUGG
RNA 2: GGGAAUGGAUCCACAUCUACGAAUUCGUACCAUAGAGAAGGUUAUCCCGCUCACCGAGAUCGGAAGAGCACACGU
B17: target 1 insG 3' of 22,insA 3' of 8 (mixed)
RNA 1: CACCCGUGCAAAAAUGCAGGGGUCUAAAACUGAGCGGAUAACCUCUCUAUGG
RNA 2: GGGAAUGGAUCCACAUCUACGAAUUCGUACGCAUAGAGAGGUUAUACCGCUCACCGAGAUCGGAAGAGCACACGU
B18: target 1 insC 3' of 9,insA 3' of 7 (mixed)
RNA 1: CACCCGUGCAAAAAUGCAGGGGUCUAAAACUGAGCGGAUAACCUCUCUAUGG
RNA 2: GGGAAUGGAUCCACAUCUACGAAUUCGUACCAUAGAGAGGUUACUCACGCUCACCGAGAUCGGAAGAGCACACGU
B19: target 1 C6G,U11C (mixed)
RNA 1: CACCCGUGCAAAAAUGCAGGGGUCUAAAACUGAGCGGAUAACCUCUCUAUGG
RNA 2: GGGAAUGGAUCCACAUCUACGAAUUCGUACCAUAGAGAGGCUAUCGGCUCACCGAGAUCGGAAGAGCACACGU
B20: target 1 A9C,U11C (mixed)
RNA 1: CACCCGUGCAAAAAUGCAGGGGUCUAAAACUGAGCGGAUAACCUCUCUAUGG
RNA 2: GGGAAUGGAUCCACAUCUACGAAUUCGUACCAUAGAGAGGCUCUCCGCUCACCGAGAUCGGAAGAGCACACGU
B21: target 1 insG 3' of 11,insA 3' of 11 (mixed)
RNA 1: CACCCGUGCAAAAAUGCAGGGGUCUAAAACUGAGCGGAUAACCUCUCUAUGG
RNA 2: GGGAAUGGAUCCACAUCUACGAAUUCGUACCAUAGAGAGGUGAUAUCCGCUCACCGAGAUCGGAAGAGCACACGU
B22: target 1 insA 3' of 13,insC 3' of 12 (mixed)
RNA 1: CACCCGUGCAAAAAUGCAGGGGUCUAAAACUGAGCGGAUAACCUCUCUAUGG
RNA 2: GGGAAUGGAUCCACAUCUACGAAUUCGUACCAUAGAGAGAGCUUAUCCGCUCACCGAGAUCGGAAGAGCACACGU
B23: target 1 insC 3' of 17,insG 3' of 14 (mixed)
RNA 1: CACCCGUGCAAAAAUGCAGGGGUCUAAAACUGAGCGGAUAACCUCUCUAUGG
RNA 2: GGGAAUGGAUCCACAUCUACGAAUUCGUACCAUAGCAGAGGGUUAUCCGCUCACCGAGAUCGGAAGAGCACACGU

23 molecules from publication PMC10786891, “Massively parallel profiling of RNA-targeting CRISPR-Cas13d” can be followed below.

The target of this series is T1, EsCas13d, nuclease-dead. In words: crRNA (strand 1, pre-loaded); Mg2+; 40 mM Tris-HCl pH 7.5, 150 mM NaCl, 6 mM MgCl2, 1 mM DTT, 0.1% Tween-20, 0.2 mg/ml BSA; 25 C; 10 min per concentration, then washed. The following applies: tags: His6-TwinStrep-SUMO cleaved; N-terminal SNAP kept (SNAP-Surface 488); label: 3' end held by stalled T7 RNA polymerase.
For B1, the Kd (commonly the equilibrium constant for the complex coming apart) was roughly 70 nM.
With B2 the figure was 13.2 ± 1.3 nM.
In the case of B3 it was 12.4 ± 1.4 nM; in that of B4, 17.4 ± 2.1 nM.
Take B5: the Kd came to 6.3 ± 0.8 nM. Compared with the last molecule, the Kd is about 2.8-fold lower.
Regarding B6, binding was characterised by a dissociation constant (Kd) of 6.5 ± 0.8 nM.
For B7, binding was characterised by a dissociation constant (Kd) of 2.14 ± 0.28 nM. Compared with the last molecule, the Kd is about 3-fold lower.
As to B8, the affinity, expressed as Kd, was 12 ± 5 nM.
For the molecule B9, the Kd was 3.9 ± 0.6 nM.
In the case of B10 it was greater than 100 nM.
In turn, B11 yielded a Kd of 10.3 ± 1 nM.
Molecule B12 registered a Kd of 30.7 ± 1.9 nM.
As to B13, binding was put at a Kd of 61 ± 16 nM. This Kd lies about 2-fold higher than the previous one.
As to B14, the Kd was found to be 30 ± 4 nM.
B15 displayed a Kd of 8.1 ± 0.6 nM.
With B16 the figure was 15.2 ± 1.8 nM.
B17 returned a Kd of 35.9 ± 2.6 nM.
In the case of B18 it was 10.4 ± 0.4 nM; in that of B19, 9.8 ± 0.8 nM; in that of B20, 20 ± 1.7 nM.
As to B21, the Kd came to 15.2 ± 0.8 nM.
Molecule B22 showed a Kd of 6.3 ± 0.9 nM.
Turning to B23, the Kd amounted to 38 ± 4 nM.
